According to patent US20110300138A1 (published 2011):

Assays:
TSHR260-AP (human) [1] = test: TSHR260-AP bridge ELISA (full length TSHR on wells, TSHR260-AP in solution); IgG 250 µg/mL diluted in assay buffer
[2] = target: human TSHR (thyroid stimulating hormone receptor) expressed in transfected CHO cells (human) (UniProt P16473); test: cell-based or functional assay
TSHR260-AP (human) [3] = test: TSHR260-AP bridge ELISA (full length TSHR on wells, TSHR260-AP in solution); IgG 0.5 µg/mL diluted in HBD serum
[4] = target: TSHR260-alkaline phosphatase (TSHR260-AP) (human) (UniProt P05187); test: TSHR260-AP bridge ELISA, full length TSHR on wells; 10 µg/mL, diluted in assay buffer
TSHR260-AP (human) [5] = test: TSHR260-AP bridge ELISA (full length TSHR on wells, TSHR260-AP in solution); IgG 0.01 µg/mL diluted in HBD serum
[6] = target: TSHR260-alkaline phosphatase (TSHR260-AP) (human) (UniProt P05187); test: TSHR260-AP bridge ELISA, full length TSHR on wells; 1 µg/mL, diluted in assay buffer
[7] = target: TSHR260-alkaline phosphatase (TSHR260-AP) (human) (UniProt P05187); test: TSHR260-AP bridge ELISA, full length TSHR on wells; 0.05 µg/mL, diluted in assay buffer
[8] = target: TSHR260-alkaline phosphatase (TSHR260-AP) (human) (UniProt P05187); test: TSHR260-AP bridge ELISA, full length TSHR on wells; 0.5 µg/mL, diluted in assay buffer
[9] = target: TSHR260-alkaline phosphatase (TSHR260-AP) (human) (UniProt P05187); test: TSHR260-AP bridge ELISA, full length TSHR on wells; 0.01 µg/mL, diluted in HBD
TSHR260-AP (human) [10] = test: TSHR260-AP bridge ELISA (full length TSHR on wells, TSHR260-AP in solution); IgG 0.5 µg/mL diluted in assay buffer
TSHR260-AP (human) [11] = test: TSHR260-AP bridge ELISA (full length TSHR on wells, TSHR260-AP in solution); IgG 0.1 µg/mL diluted in assay buffer
TSHR260-AP (human) [12] = test: TSHR260-AP bridge ELISA (full length TSHR on wells, TSHR260-AP in solution); IgG 0.1 µg/mL diluted in HBD serum
TSHR260-AP (human) [13] = test: TSHR260-AP bridge ELISA (full length TSHR on wells, TSHR260-AP in solution); IgG 0.005 µg/mL diluted in assay buffer
TSHR260-AP (human) [14] = test: TSHR260-AP bridge ELISA (full length TSHR on wells, TSHR260-AP in solution); IgG 250 µg/mL diluted in HBD serum
[15] = target: TSHR260-alkaline phosphatase (TSHR260-AP) (human) (UniProt P05187); test: TSHR260-AP bridge ELISA, full length TSHR on wells; 0.01 µg/mL, diluted in assay buffer
TSHR260-AP (human) [16] = test: TSHR260-AP bridge ELISA (full length TSHR on wells, TSHR260-AP in solution); IgG 0.005 µg/mL diluted in HBD serum
TSHR260-AP (human) [17] = test: TSHR260-AP bridge ELISA (full length TSHR on wells, TSHR260-AP in solution); IgG 1 µg/mL diluted in HBD serum

M22 IgG (antibody), sequence (VH): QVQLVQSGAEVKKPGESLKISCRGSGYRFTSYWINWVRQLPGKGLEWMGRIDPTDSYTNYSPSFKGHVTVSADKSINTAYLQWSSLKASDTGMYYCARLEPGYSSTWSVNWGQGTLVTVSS
M22 IgG (antibody), sequence (V domain): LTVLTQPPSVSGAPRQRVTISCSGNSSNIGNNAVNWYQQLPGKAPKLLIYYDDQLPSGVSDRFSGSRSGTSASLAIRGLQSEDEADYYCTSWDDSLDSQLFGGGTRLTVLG

Mean absorbance at 405 nm (absorbance at 405 nm) (TSHR260-AP (human) [1]): 1.01 | Cyclic AMP concentration; 3 ng/mL M22 IgG [2]: 21.3 pmol/mL | Mean absorbance at 405 nm (absorbance at 405 nm) (TSHR260-AP (human) [3]): 0.657 | Mean absorbance at 405 nm (absorbance at 405 nm) [4]: 0.872 | Mean absorbance at 405 nm (absorbance at 405 nm) (TSHR260-AP (human) [5]): 0.03 | Mean absorbance at 405 nm (absorbance at 405 nm) [6]: 0.821 | Mean absorbance at 405 nm (absorbance at 405 nm) [7]: 0.484 | Mean absorbance at 405 nm (absorbance at 405 nm) [8]: 0.776 | Mean absorbance at 405 nm (absorbance at 405 nm) [9]: 0.03 | Mean absorbance at 405 nm (absorbance at 405 nm) (TSHR260-AP (human) [10]): 0.776 | Mean absorbance at 405 nm (absorbance at 405 nm) (TSHR260-AP (human) [11]): 0.653 | Mean absorbance at 405 nm (absorbance at 405 nm) (TSHR260-AP (human) [12]): 0.365 | Mean absorbance at 405 nm (absorbance at 405 nm) (TSHR260-AP (human) [13]): 0.075 | Mean absorbance at 405 nm (absorbance at 405 nm) (TSHR260-AP (human) [14]): 0.833 | Mean absorbance at 405 nm (absorbance at 405 nm) [15]: 0.101 | Mean absorbance at 405 nm (absorbance at 405 nm) (TSHR260-AP (human) [16]): 0.045 | Mean absorbance at 405 nm (absorbance at 405 nm) (TSHR260-AP (human) [17]): 0.726
Substance: M22 IgG (antibody)
